Common to all, as to assay: FP
For assay [1], the target named is T1, UHRF1 full-length (a.a. 1–793), MBP fusion ( (printed UniProt entry is …, UniProt Q96T88 1-793)).
T1 chain: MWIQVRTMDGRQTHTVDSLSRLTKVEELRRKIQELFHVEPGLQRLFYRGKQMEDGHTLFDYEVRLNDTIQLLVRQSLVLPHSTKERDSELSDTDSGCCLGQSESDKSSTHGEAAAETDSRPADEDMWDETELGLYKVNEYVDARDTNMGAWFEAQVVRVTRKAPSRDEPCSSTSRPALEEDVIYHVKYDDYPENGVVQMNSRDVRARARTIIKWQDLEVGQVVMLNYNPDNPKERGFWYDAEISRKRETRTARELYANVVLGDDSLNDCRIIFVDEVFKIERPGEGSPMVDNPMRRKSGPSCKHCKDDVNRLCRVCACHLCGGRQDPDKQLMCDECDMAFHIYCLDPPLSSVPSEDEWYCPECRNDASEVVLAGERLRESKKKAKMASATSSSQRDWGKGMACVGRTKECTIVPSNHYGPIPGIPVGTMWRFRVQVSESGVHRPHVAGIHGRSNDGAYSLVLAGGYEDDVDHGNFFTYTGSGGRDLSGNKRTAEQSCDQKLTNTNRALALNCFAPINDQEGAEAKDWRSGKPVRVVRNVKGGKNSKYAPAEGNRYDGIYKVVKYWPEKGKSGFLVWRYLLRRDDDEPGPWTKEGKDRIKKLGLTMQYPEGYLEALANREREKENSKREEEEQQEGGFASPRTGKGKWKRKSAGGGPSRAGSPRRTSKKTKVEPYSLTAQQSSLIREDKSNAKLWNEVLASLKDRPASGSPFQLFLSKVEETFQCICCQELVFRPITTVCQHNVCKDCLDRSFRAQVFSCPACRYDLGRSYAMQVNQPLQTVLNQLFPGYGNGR

For assay [2], the target named is T2, GST-tagged chromodomain Y-like protein isoform 2 (CDYL1b) chromodomain ( (printed UniProt entry is …)).
T2 chain: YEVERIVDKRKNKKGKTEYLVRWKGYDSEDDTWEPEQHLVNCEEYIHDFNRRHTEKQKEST

For assay [3], the target named is T3, MPP8 chromo (Homo sapiens).
T3 chain: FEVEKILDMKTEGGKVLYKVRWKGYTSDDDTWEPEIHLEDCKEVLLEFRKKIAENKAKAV

Assay [4] concerns the target T4, GST-tagged UHRF1 tandem Tudor domain (TTD, a.a. 125–285) ( (printed UniProt entry is …, UniProt Q96T88 125-285)).
T4 chain: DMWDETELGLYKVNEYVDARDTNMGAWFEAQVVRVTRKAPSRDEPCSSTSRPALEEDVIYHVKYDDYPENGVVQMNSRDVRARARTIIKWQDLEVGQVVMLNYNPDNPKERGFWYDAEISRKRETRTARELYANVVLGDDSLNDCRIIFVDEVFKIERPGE

The target of assay [5] is T5, GST-tagged UHRF1 TTD–PHD (a.a. 125–364) ( (printed UniProt entry is …, UniProt Q96T88 125-364)).
T5 chain: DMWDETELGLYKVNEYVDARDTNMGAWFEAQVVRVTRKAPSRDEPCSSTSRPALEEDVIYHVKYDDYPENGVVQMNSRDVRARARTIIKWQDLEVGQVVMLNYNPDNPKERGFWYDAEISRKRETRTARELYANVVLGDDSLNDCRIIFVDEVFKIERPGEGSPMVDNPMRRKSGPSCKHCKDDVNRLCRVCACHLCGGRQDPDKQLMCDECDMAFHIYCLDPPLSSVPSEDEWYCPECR

The target in assay [6] is T6, GST-tagged UHRF1 TTD–PHD S298E ( (printed UniProt entry is …, UniProt Q96T88 125-364, S298E)).
T6 sequence: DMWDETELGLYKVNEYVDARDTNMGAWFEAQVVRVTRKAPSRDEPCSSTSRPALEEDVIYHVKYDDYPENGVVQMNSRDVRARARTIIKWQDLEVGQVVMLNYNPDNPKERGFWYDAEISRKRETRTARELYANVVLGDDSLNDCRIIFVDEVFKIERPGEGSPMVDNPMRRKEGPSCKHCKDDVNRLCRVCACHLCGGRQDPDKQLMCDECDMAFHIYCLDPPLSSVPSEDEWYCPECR

Assay [7] deals with T7, GST-tagged UHRF1 TTD–PHD R295A/R296A ( (printed UniProt entry is …, UniProt Q96T88 125-364, R295A | R296A)).
T7 sequence: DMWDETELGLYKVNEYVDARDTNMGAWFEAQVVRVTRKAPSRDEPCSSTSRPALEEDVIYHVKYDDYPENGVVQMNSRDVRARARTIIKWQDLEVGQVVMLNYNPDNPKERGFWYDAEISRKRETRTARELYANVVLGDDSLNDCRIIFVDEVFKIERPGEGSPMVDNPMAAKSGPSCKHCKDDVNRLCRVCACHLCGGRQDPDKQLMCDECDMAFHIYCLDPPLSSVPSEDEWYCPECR

In assay [8] the target is T8, GST-tagged UHRF1 TTD-L2 (a.a. 125–301) ( (printed UniProt entry is …, UniProt Q96T88 125-301)).
T8 chain: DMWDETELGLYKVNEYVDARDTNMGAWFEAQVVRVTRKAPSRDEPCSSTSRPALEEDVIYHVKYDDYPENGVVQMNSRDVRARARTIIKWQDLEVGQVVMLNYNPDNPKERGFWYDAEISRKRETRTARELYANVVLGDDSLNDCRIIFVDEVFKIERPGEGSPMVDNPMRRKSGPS

Where no end group is shown, it is not given here. [ ]: non-standard residue; d: D form. The star is where a group is joined. 5FAM = O=C1OC2(c3ccc(O)cc3Oc3cc(O)ccc32)c2ccc(C(=O)*)cc21; Me2 = dimethyl on lysine side chain; PEG = not defined here

A word on the Kd: it is the constant that tells how readily two partners part at equilibrium. A higher Kd goes with a looser complex.

As for 5FAM-IPKRRTARK(Me2)QLPK[PEG][dK][dK][dK][dR][dK][dV]-NH2 (reading uncertain) [FAM-LIG1(118–130)K126me2-PEG-CPP], in assay [1], the Kd was 8 nM.
Regarding {FAM}-IPKRRTARK(Me2)QLPK (not fully specified (C-terminus); printed as FAM-LIG1(118–130)K126me2 peptide) [FAM-LIG1(118–130)K126me2 peptide], the Kd in assay [2] worked out at 6500 nM; in assay [3] it was 32000 nM; in assay [4], 40 nM; in assay [5], 10 nM; in assay [6], 10 nM; in assay [7], 8 nM. Besides, in assay [8], the Kd came to 10 nM.

The values above are taken from PMC7585203 (2020).
